These results are taken from patent US9228009B2, “Multi-hierarchical self-assembly of a collagen mimetic peptide” (WILLIAM MARSH RICE UNIVERSITY, priority 2011, dated 2016).

In the data set the test system is collagenase type IV. Description: Collagenase degradation study of hydrogels. Particulars: for hydrogel degradation state: w/ collagenase, 3.0% by weight gel. The format is in vitro ADME. As for the experimental part: As a simple functional test of the collagen hydrogel mimetic, we compared its ability to be broken down by collagenase (type IV, Invitrogen) the primary component of which is MMP2, a protease known to specifically cleave between the X and Gly residues of an X-Y-Gly repeat found in a triple helix.^42 (Pro-Lys-Gly)4(Pro-Hyp-Gly)4(Asp-Hyp-Gly)4 hydrogels were prepared at a concentration of 2.0% by weight in phosphate buffer and treated with either collagenase in HBSS (Hank's Balanced Salt Solution) or HBSS alone. The samples were allowed to incubate at room temperature (approximately 20° C.), 30° C. and 37° C. Hydrogels of rat-tail collagen were prepared in the same fashion with and without collagenase.
Using the previously described gelation procedure, gels of (Pro-Lys-Gly)4(Pro-Hyp-Gly)4(Asp-Hyp-Gly)4 were prepared at a concentration of 2.0% by weight in 10 mM phosphate buffer. Directly after annealing, 100 μl of solution was pipetted into two wells of a 96-well cell culture plate and allowed to incubate at room temperature overnight. A 0.3% by weight collagenase type IV solution was prepared by dissolving 15.0 mg of non-sterile lyophilized enzyme into 5 ml of Hank's Balanced Salt Solution (HBSS). The solution was then filter sterilized using a 0.2 μm filter attached to a syringe. Enzyme and buffer were from Invitrogen (Carlsbad, Calif.). After gelation was complete, 150 μl of collagenase was added on top of one well and 150 μL of HBSS was added on the other serving as a control. Three plates were prepared and incubated at room temperature (about 20° C.), 30° C. and 37° C. Each condition was observed and imaged at 0, 1, 4, 6, 12, 24 and 48 hours after addition of the collagenase or HBSS. Plates containing rat-tail collagen gels at a concentration of 3.0% by weight were prepared and analyzed in an identical manner. Table 1 and Table 2 below show collagenase mediated degradation of (Pro-Lys-Gly)4(Pro-Hyp-Gly)4(Asp-Hyp-Gly)4 and rat-tail collagen hydrogels, respectively. Samples were tested at room temperature (approximately 20° C., 30° C. and 37° C.) with and without collagenase. […] Control samples of (Pro-Lys-Gly)4(Pro-Hyp-Gly)4(Asp-Hyp-Gly)4 at room temperature and 30° C. were intact after 48 hours. However at 37° C. the hydrogels dissolved after 24 hours due to the proximity of this temperature to the triple helices melting temperature.

Consider “Rat-tail Collagen: collagen type I harvested from rat-tail tendon; hydrogels at 3.0% by weight used as comparator [reference compound]”, for which the “time after which hydrogel treated with collagenase was fully dissolved” value is, setting by setting: (30° C.) 4 h; (37° C.) 1 h; (room temperature (approximately 20° C.)) 4 h. Further, the hydrogel degradation state entry is, setting by setting: (20° C., 0 h) “intact”; (20° C., 1 h) “intact”; (20° C., 4 h) “dissolved”; (20° C., 6 h) “dissolved”; (20° C., 12 h) “dissolved”; (20° C., 24 h) “dissolved”. The hydrogel degradation state entry is recorded as “dissolved” (20° C., 48 h); “intact” (30° C., 0 h); “intact” (30° C., 1 h); “dissolved” (30° C., 4 h); “dissolved” (30° C., 6 h); “dissolved” (30° C., 12 h). For the same substance, the hydrogel degradation state entry runs as follows: (30° C., 24 h) “dissolved”; (30° C., 48 h) “dissolved”; (37° C., 0 h) “intact”; (37° C., 1 h) “dissolved”; (37° C., 4 h) “dissolved”; (37° C., 6 h) “dissolved”. Also, the hydrogel degradation state entry is, setting by setting: (37° C., 12 h) “dissolved”; (37° C., 24 h) “dissolved”; (37° C., 48 h) “dissolved”.
